Reference: IntAct's records for PubMed 31515488

B1: Uridine diphosphate glucose pyrophosphatase NUDT22 (Homo sapiens), Q9BRQ3 (parent)
chain: MDPEVTLLLQCPGGGLPQEQIQAELSPAHDRRPLPGGDEAITAIWETRLKAQPWLFDAPKFRLHSATLAPIGSRGPQLLLRLGLTSYRDFLGTNWSSSAAWLRQQGATDWGDTQAYLADPLGVGAALATADDFLVFLRRSRQVAEAPGLVDVPGGHPEPQALCPGGSPQHQDLAGQLVVHELFSSVLQEICDEVNLPLLTLSQPLLLGIARNETSAGRASAEFYVQCSLTSEQVRKHYLSGGPEAHESTGIFFVETQNVQRLLETEMWAELCPSAKGAIILYNRVQGSPTGAALGSPALLPPL
partner: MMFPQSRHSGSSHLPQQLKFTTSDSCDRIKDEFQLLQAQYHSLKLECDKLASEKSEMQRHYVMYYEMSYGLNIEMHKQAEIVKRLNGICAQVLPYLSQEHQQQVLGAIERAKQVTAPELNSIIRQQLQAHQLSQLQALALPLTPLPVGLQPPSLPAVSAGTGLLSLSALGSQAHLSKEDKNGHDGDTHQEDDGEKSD
B2: AP-4 complex accessory subunit RUSC1 (Homo sapiens), Q9BVN2 (parent)
chain: MLSPQRALLCNLNHIHLQHVSLGLHLSRRPELQEGPLSTPPPPGDTGGKESRGPCSGTLVDANSNSPAVPCRCCQEHGPGLENRQDPSQEEEGAASPSDPGCSSSLSSCSDLSPDESPVSVYLRDLPGDEDAHPQPSIIPLEQGSPLASAGPGTCSPDSFCCSPDSCSGASSSPDPGLDSNCNALTTCQDVPSPGLEEEDERAEQDLPTSELLEADDGKIDAGKTEPSWKINPIWKIDTEKTKAEWKTTENNNTGWKNNGNVNSSWKSEPEKFDSGWKTNTRITDSGSKTDAGKIDGGWRSDVSEEPVPHRTITSFHELAQKRKRGPGLPLVPQAKKDRSDWLIVFSPDTELPPSGSPGGSSAPPREVTTFKELRSRSRAPAPPVPPRDPPVGWALVPPRPPPPPVPPRRKKNRPGLQPIAEGQSEEGRAVSPAAGEEAPAAKEPGAQAGLEVRSSWSFAGVPGAQRLWMAEAQSGTGQLQEQKKGLLIAVSVSVDKIISHFGAARNLVQKAQLGDSRLSPDVGHLVLTTLCPALHALVADGLKPFRKDLITGQRRSSPWSVVEASVKPGSSTRSLGTLYSQVSRLAPLSSSRSRFHAFILGLLNTKQLELWFSSLQEDAGLLSLLYLPTGFFSLARGGCPSLSTELLLLLQPLSVLTFHLDLLFEHHHHLPLGPPQAPAPPGPPPALQQTMQAMLHFGGRLAQSLRGTSKEAASDPSDSPNLPTPGSWWEQLTQASRVYASGGTEGFPLSRWAPGRHGTAAEEGAQERPLPTDEMAPGRGLWLGRLFGVPGGPAENENGALKSRRPSSWLPPTVSVLALVKRGAPPEMPSPQELEASAPRMVQTHRAVRALCDHTAARPDQLSFRRGEVLRVITTVDEDWLRCGRDGMEGLVPVGYTSLVL

Variants of: B1
Conditions: with tle5_human TLE5, Q08117
In the case of MDPEVTLLLQCPGGGLPQEQIQAELSPAHDRRPLPCGDEAITAIWETRLKAQPWLFDAPKFRLHSATLAPIGSRGPQLLLRLGLTSYRDFLGTNWSSSAAWLRQQGATDWGDTQAYLADPLGVGAALATADDFLVFLRRSRQVAEAPGLVDVPGGHPEPQALCPGGSPQHQDLAGQLVVHELFSSVLQEICDEVNLPLLTLSQPLLLGIARNETSAGRASAEFYVQCSLTSEQVRKHYLSGGPEAHESTGIFFVETQNVQRLLETEMWAELCPSAKGAIILYNRVQGSPTGAALGSPALLPPL [G36C], the “effect of a mutation on the interaction” value is reported as “with no effect”.

Variants of: B2
Conditions: with pnma1_human PNMA1, Q8ND90
pnma1_human PNMA1, Q8ND90, sequence (Q8ND90 whole entry): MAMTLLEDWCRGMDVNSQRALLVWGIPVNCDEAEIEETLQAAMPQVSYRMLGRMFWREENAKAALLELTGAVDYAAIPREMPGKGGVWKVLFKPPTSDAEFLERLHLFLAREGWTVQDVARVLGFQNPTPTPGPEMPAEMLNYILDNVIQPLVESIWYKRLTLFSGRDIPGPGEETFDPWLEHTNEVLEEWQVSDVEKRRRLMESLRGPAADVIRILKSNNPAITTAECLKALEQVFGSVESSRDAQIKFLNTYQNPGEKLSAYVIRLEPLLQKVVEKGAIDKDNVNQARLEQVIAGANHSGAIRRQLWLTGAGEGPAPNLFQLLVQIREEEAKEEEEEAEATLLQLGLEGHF
With S614F the “effect of a mutation on the interaction” value was “with no effect”. With G638S the “effect of a mutation on the interaction” value was “with no effect”. For F665S, the “effect of a mutation on the interaction” value was “with no effect”.

Variants of: B2
Conditions: with rbpms_human RBPMS
With S614F the “effect of a mutation on the interaction” value was “with no effect”. In the case of A795T, the “effect of a mutation on the interaction” value is reported as “with no effect”. With G638S the “effect of a mutation on the interaction” value was “with no effect”.

Variants of: B2
Conditions: with fam9b_human FAM9B
With S614F the “effect of a mutation on the interaction” value was “disrupting interaction strength”. G638S was tested, and the “effect of a mutation on the interaction” value was “with no effect”. In the case of F665S, the “effect of a mutation on the interaction” value is reported as “with no effect”.
